The results in this text go back to article PMC10388152 (PNAS Nexus, 2023).

In general, stoichiometry N refers to a count of units in the complex or per binding partner.

This data set deals with the molecule itself. As to the kind of experiment: dynamic light scattering.

B1: C-terminal truncated ScBfr (ScBfr 1-152: residues 153-167 removed) (domain or fragment, Streptomyces coelicolor, UniProt Q9S2N0 1-152, looked up)
chain: MQGDPEVIEFLNEQLTAELTAINQYFLHAKLQDHKGWTKLAKYTRAESFDEMRHAEVLTDRILLLDGLPNYQRLFHVRVGQSVTEMFQADREVELEAIDRLRRGIEVMRAKHDITSANVFEAILADEEHHIDYLETQLDLIEKLGESLYLST
On to B1, for which the “stoichiometry N” value is 24.
